Laboratory results published in the supplement of paper PMC10126150.
± gives the standard deviation of the averaged measurements.

System: ATP
Experiment: switch fluorescence ratio, 500 uM ATP over buffer (Cy3 cluster intensity, sum of 5 cycles each) (fold (ratio)); higher = stronger signal-on switching upon ATP binding; sequences stand for … in TCGTCGGCAGCGTCAGATGTGTATAAGAGACAGTTTTTTTTTTTTTTTTTTTTTTTTT…TC
Settings: aptamer strand: ATP DNA aptamer (quencher-CACCTGGGGGAGTATTGCGGAGGAAGG + anchor), 100 nM annealed; ATP concentration: 500 uM
How it was run: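 Values give the fluorescence ratio for each switch-domain sequence, averaged from per-cluster ratios of summed target-cycle to summed buffer-cycle Cy3 intensity. The Cy3-labelled switching-strand clusters sat on a modified Illumina MiSeq flow-cell, were annealed to 100 nM quencher-labelled ATP aptamer, and were imaged in selection buffer, then after 15 min with 500 uM ATP at 22 °C. Five cycles ran with NaOH stripping and re-annealing between them, and clusters outside 100-1000 RFU were excluded.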
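Further: ATP exposure 15 min at 22 °C before imaging.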

Sequence | switch fluorescence ratio
TGGTAATAGG | 1.0108 ± 0.00095
TGGTACACGT | 0.989 ± 0.014
TGGTACATCA | 0.973 ± 0.054
TGGTACATTA | 1.34 ± 0.46
TGGTACCACT | 0.996 ± 0.014
TGGTACGGGA | 0.999 ± 0.043
TGGTACTTGT | 1.01 ± 0.027
TGGTAGAGTG | 0.987 ± 0.0027
TGGTAGGGTA | 1.03 ± 0.034
TGGTAGGGTT | 0.969 ± 0.028
TGGTAGGTA | 0.987 ± 0.013
TGGTAGTGCT | 1.01 ± 0.018
TGGTAGTTTG | 0.9951 ± 0.0039
TGGTATAACG | 0.964 ± 0.025
TGGTATGGTT | 0.996 ± 0.011
TGGTATTTAT | 1.012 ± 0.0072
TGGTATTTTA | 0.982 ± 0.028
TGGTCAAATC | 1 ± 0.051
TGGTCAGAGT | 1.01 ± 0.023
TGGTCCTAGT | 0.975 ± 0.017
TGGTCGCAGC | 1.01 ± 0.018
TGGTCTCTTT | 1 ± 0.039
TGGTCTTAGA | 1.01 ± 0.012
TGGTCTTGTA | 1.04 ± 0.021
TGGTGAAAAG | 0.97 ± 0.059

Sequence | switch fluorescence ratio
TGGTGACTGA | 0.981 ± 0.011
TGGTGAGGGG | 1.12 ± 0.24
TGGTGAGTTT | 0.984 ± 0.019
TGGTGATAGT | 0.965 ± 0.035
TGGTGATGGG | 0.9922 ± 0.0093
TGGTGCAGGA | 0.9776 ± 0.0092
TGGTGCAGGG | 0.984 ± 0.015
TGGTGCATGG | 1.03 ± 0.024
TGGTGCCGGT | 1.01 ± 0.041
TGGTGCGCCC | 1.033 ± 0.0058
TGGTGCTCAT | 0.994 ± 0.024
TGGTGGAATT | 1.02 ± 0.034
TGGTGGACGT | 0.997 ± 0.039
TGGTGGCCGG | 1.02 ± 0.019
TGGTGGGATC | 1.03 ± 0.025
TGGTGGGGCA | 0.977 ± 0.064
TGGTGGGGGT | 0.999 ± 0.028
TGGTGGGTAT | 0.999 ± 0.024
TGGTGGGTTT | 1 ± 0.029
TGGTGGTATG | 1.01 ± 0.071
TGGTGTCACG | 0.983 ± 0.017
TGGTGTCGT | 1.01 ± 0.011
TGGTGTTGTC | 1.03 ± 0.033
TGGTTAAAAT | 1 ± 0.025
TGGTTAAATT | 0.997 ± 0.033

Sequence | switch fluorescence ratio
TGGTTAACTG | 1.13 ± 0.16
TGGTTACGCT | 1.028 ± 0.0084
TGGTTACTCG | 0.984 ± 0.034
TGGTTAGGG | 0.988 ± 0.019
TGGTTATAAT | 0.992 ± 0.024
TGGTTATTAC | 1.037 ± 0.0094
TGGTTATTAT | 0.991 ± 0.015
TGGTTCGAT | 0.978 ± 0.015
TGGTTCGGGG | 0.96 ± 0.015
TGGTTCGGTG | 0.977 ± 0.016
TGGTTGAAAA | 0.875 ± 0.033
TGGTTGAACC | 1.03 ± 0.024
TGGTTGAGAC | 0.988 ± 0.016
TGGTTGATGA | 0.98 ± 0.064
TGGTTGCGTG | 1 ± 0.015
TGGTTGGGAG | 1.01 ± 0.035
TGGTTGGGCT | 1.01 ± 0.026
TGGTTGGGGA | 0.994 ± 0.036
TGGTTGGTC | 0.965 ± 0.039
TGGTTGGTGC | 1.16 ± 0.17
TGGTTGTTAT | 1.008 ± 0.0058
TGGTTGTTTA | 0.993 ± 0.0045
TGGTTTAATA | 0.9853 ± 0.0079
TGGTTTACCA | 0.9936 ± 0.0041
TGGTTTATTC | 0.986 ± 0.051

Sequence | switch fluorescence ratio
TGGTTTCAGG | 1.01 ± 0.025
TGGTTTGCCG | 1.01 ± 0.049
TGGTTTGGTA | 0.961 ± 0.011
TGGTTTTGCC | 1.005 ± 0.0082
TGGTTTTGGG | 0.992 ± 0.021
TGGTTTTTAC | 1.01 ± 0.038
TGGTTTTTGG | 0.989 ± 0.018
TGGTTTTTTC | 1.01 ± 0.033
TGGTTTTTTT | 0.992 ± 0.018
TGTAAAAACG | 1.01 ± 0.056
TGTAAAAAGC | 1.018 ± 0.0059
TGTAAAAGGA | 1.01 ± 0.021
TGTAAACCGG | 1.07 ± 0.042
TGTAAATACA | 1.15 ± 0.18
TGTAAGCCGG | 1.05 ± 0.07
TGTAAGGATT | 1.009 ± 0.0083
TGTAAGGGCG | 1.02 ± 0.016
TGTAATGGGT | 1 ± 0.029
TGTACGACGG | 1.02 ± 0.023
TGTACTATGG | 1.01 ± 0.04
TGTAGAGGGC | 1.04 ± 0.026
TGTAGAGGGT | 0.976 ± 0.029
TGTAGGAAGT | 0.992 ± 0.017
TGTAGGACGG | 1.09 ± 0.094
TGTAGGGGTG | 0.987 ± 0.016

Sequence | switch fluorescence ratio
TGTAGGTGGT | 0.978 ± 0.016
TGTAGTAACG | 0.982 ± 0.012
TGTAGTAGCA | 1.04 ± 0.034
TGTATATTGG | 0.995 ± 0.015
TGTATCTCTG | 1.02 ± 0.02
TGTATGGCGC | 1.01 ± 0.058
TGTATGGGGT | 0.973 ± 0.018
TGTATGTTTT | 0.962 ± 0.046
TGTATTATGT | 1.002 ± 0.004
TGTATTCGGG | 0.978 ± 0.01
TGTATTTAC | 1.11 ± 0.048
TGTCAAAAAT | 0.982 ± 0.043
TGTCAGACGT | 1 ± 0.011
TGTCAGGGGT | 1.03 ± 0.043
TGTCCCACAA | 0.999 ± 0.035
TGTCCGCCTG | 1.07 ± 0.019
TGTCGGAAAG | 0.985 ± 0.026
TGTCGGCTGC | 1.09 ± 0.015
TGTCGGGTTA | 1.01 ± 0.027
TGTCGGTGGG | 0.992 ± 0.016
TGTCGGTGTC | 1.01 ± 0.028
TGTCGTCTTC | 0.99 ± 0.016
TGTCGTGTAG | 1.01 ± 0.0094
TGTCTCAGAT | 0.97948 ± 0.00033
TGTCTTTTTA | 0.995 ± 0.028

Sequence | switch fluorescence ratio
TGTGAAAGGC | 1.04 ± 0.03
TGTGAAGTTG | 1.008 ± 0.0027
TGTGAATGGG | 1.02 ± 0.017
TGTGACAATA | 1.04 ± 0.01
TGTGACAGGA | 1.02 ± 0.057
TGTGAGTTTT | 0.974 ± 0.014
TGTGATGCCG | 0.976 ± 0.015
TGTGATTTTG | 0.998 ± 0.028
TGTGCAGAAA | 0.9899 ± 0.0059
TGTGCGACGG | 0.989 ± 0.021
TGTGCGTCGA | 1.001 ± 0.00055
TGTGCTGGTG | 1.039 ± 0.0068
TGTGGAGAGC | 0.999 ± 0.038
TGTGGCAGTT | 1.02 ± 0.027
TGTGGGACGT | 0.952 ± 0.01
TGTGGGATAG | 0.979 ± 0.029
TGTGGGCATT | 1.019 ± 0.0053
TGTGGGGAGC | 0.995 ± 0.043
TGTGGGGGTA | 0.986 ± 0.034
TGTGGGGTAT | 1.07 ± 0.045
TGTGGGGTCG | 1.01 ± 0.058
TGTGGGTGTT | 0.961 ± 0.011
TGTGGGTTAT | 0.976 ± 0.011
TGTGGTAAGT | 1.01 ± 0.062
TGTGGTAGCG | 1.01 ± 0.018

Sequence | switch fluorescence ratio
TGTGGTTGTT | 1.02 ± 0.041
TGTGGTTTCC | 1.01 ± 0.022
TGTGGTTTGA | 1.01 ± 0.043
TGTGTACCGG | 1.01 ± 0.028
TGTGTCTAGT | 0.974 ± 0.0013
TGTGTGAATG | 1.03 ± 0.037
TGTGTGAGGG | 1.036 ± 0.0086
TGTGTGTAAG | 1.001 ± 0.0067
TGTGTGTGTG | 0.974 ± 0.017
TGTGTTACTT | 0.9988 ± 0.001
TGTGTTAGG | 1.01 ± 0.03
TGTGTTAGTT | 0.991 ± 0.024
TGTGTTCCTC | 1.08 ± 0.013
TGTGTTGGTC | 1.036 ± 0.0032
TGTGTTGTGG | 0.997 ± 0.028
TGTGTTTCGT | 1.007 ± 0.0084
TGTGTTTGGG | 0.987 ± 0.038
TGTGTTTGGT | 0.979 ± 0.021
TGTTAATAGC | 1.03 ± 0.032
TGTTACGGCA | 1.08 ± 0.041
TGTTAGAGGC | 1.03 ± 0.1
TGTTAGGCAA | 1.06 ± 0.034
TGTTAGGTAA | 1.22 ± 0.32
TGTTAGTGTT | 1.03 ± 0.029
TGTTAGTTCT | 1.02 ± 0.0089

Sequence | switch fluorescence ratio
TGTTATAATG | 1.03 ± 0.068
TGTTATGTGC | 0.968 ± 0.036
TGTTATTTTT | 1 ± 0.041
TGTTCAAAAC | 1 ± 0.086
TGTTCAGGTG | 3.38 ± 0.15
TGTTCCGCTT | 2.16 ± 0.17
TGTTCCGGGT | 0.999 ± 0.048
TGTTCGGGTT | 0.99 ± 0.015
TGTTCTAGG | 1.01 ± 0.015
TGTTCTATAT | 1.01 ± 0.05
TGTTCTCGGA | 1.006 ± 0.0097
TGTTCTGCGA | 1.43 ± 0.54
TGTTGAAGGT | 1.02 ± 0.029
TGTTGAATGT | 1.02 ± 0.03
TGTTGAGGGG | 0.964 ± 0.041
TGTTGAGTGT | 0.962 ± 0.017
TGTTGATAGG | 0.982 ± 0.02
TGTTGATCCT | 1.03 ± 0.027
TGTTGATTGT | 0.983 ± 0.013
TGTTGCCACG | 1 ± 0.0062
TGTTGCCGTT | 0.886 ± 0.057
TGTTGCCTGG | 0.978 ± 0.023
TGTTGCTTAA | 0.993 ± 0.019
TGTTGGGACG | 1.1 ± 0.039
TGTTGGGACT | 1.17 ± 0.24
